According to US6686449B2, “Mutant presenilin 1 polypeptides” (Pharmacia & Upjohn Company, priority 2000, dated 2004):

Experiments:
[1] = system: APP processing in H125.3-16 (APP695sw-KK) and H143.3-23 (APP695sw) HEK cells; experiment: Transient transfection of constructs, Elisa of Aβ in conditioned media, HEK APP695sw cell lines; type: cell-based, human; settings: 48 hours after transfection
Description: (§1) The construction of the cell lines used in this section has been described in U.S. Pat. No. 6,440,698. Transient transfections were carried out in 4 different cell lines: H125.3-16, N2A-APP, H143.3-23, and H167-11. The H125.3-16 cell line expresses human APP695 swedish mutant cDNA with a dilyine motif in HEK-293 cells, and the H 143.3-23 cell line expresses human APP695 swedish mutant cDNA in HEK-293 cells. The H167-1 1 cell line was developed using the same methods as the H125.3-16 and H143.3-23 cell lines, except the 167 construct DNA (pTRES-EGFP harboring the human APP695 V642F mutant cDNA containing a dilyine motif) was used. […]
(§2) Twenty-four hours prior to transfection, cells were plated at 6×10^5 cells per well of a six-well dish. […] Conditioned media was collected from the cells 48 hours after transfection and then analyzed by Elisa assay for levels of Aβ1-40 and Aβ1-42. […]

[2] = system: APP processing in H167-11 HEK cells (APP695V642F-KK); experiment: Transient transfection of constructs, Elisa of Aβ in conditioned media, H167-11 cell line; type: cell-based, human; settings: 48 hours after transfection
Description: as §1, §2

B1: BACE: beta-secretase (Asp2) plasmid transfected into the cell lines (protein, UniProt P56817 46-501, looked up)
Beta-secretase 1: ETDEEPEEPGRRGSFVEMVDNLRGKSGQGYYVEMTVGSPPQTLNILVDTGSSNFAVGAAPHPFLHRYYQRQLSSTYRDLRKGVYVPYTQGKWEGELGTDLVSIPHGPNVTVRANIAAITESDKFFINGSNWEGILGLAYAEIARPDDSLEPFFDSLVKQTHVPNLFSLQLCGAGFPLNQSEVLASVGGSMIIGGIDHSLYTGSLWYTPIRREWYYEVIIVRVEINGQDLKMDCKEYNYDKSIVDSGTTNLRLPKKVFEAAVKSIKAASSTEKFPDGFWLGEQLVCWQAGTTPWNIFPVISLYLMGEVTNQSFRITILPQQYLRPVEDVATSQDDCYKFAISQSSTGTVMGAVIMEGFYVVFDRARKRIGFAVSACHVHDEFRTAAVEGPFVTLDMEDCGYNIPQTDESTLMTIAYVMAAICALFMLPLCLMVCQWRCLRCLRQQHDDFADDISLLK
- change of Aβ1-40 in conditioned media versus mock transfected cells [1]: robust increase
- change of Aβ1-42 in conditioned media versus mock transfected cells [1]: robust increase
- change of Aβ1-40 or Aβ1-42 versus mock transfected cells [2]: increase
